“And” between values parts separate entries of the source, which are not always exact repeats. Equal values may be shown once.
Tests used:
IL-13 16 mer peptide 39 = target: T1, IL-13 16 mer peptide 39; experiment: 16 mer peptide ELISA; peptide 39
T1 sequence (peptide, N-terminal biotin; C-terminal amide): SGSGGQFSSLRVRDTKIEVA

IL-13 16 mer peptide 16 = target: T2, IL-13 16 mer peptide 16; experiment: 16 mer peptide ELISA; peptide 16
T2 sequence (peptide, N-terminal biotin; C-terminal amide): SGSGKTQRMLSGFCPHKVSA

IL-13 16 mer peptide 31 = target: T3, IL-13 16 mer peptide 31; experiment: 16 mer peptide ELISA; peptide 31
T3 sequence (peptide, N-terminal biotin; C-terminal amide): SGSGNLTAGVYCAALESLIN

IL-13 16 mer peptide 32 = target: T4, IL-13 16 mer peptide 32; experiment: 16 mer peptide ELISA; peptide 32
T4 sequence (peptide, N-terminal biotin; C-terminal amide): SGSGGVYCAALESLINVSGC

IL-13 16 mer peptide 5 = target: T5, IL-13 16 mer peptide 5; experiment: 16 mer peptide ELISA; peptide 5
T5 sequence (peptide, N-terminal biotin; C-terminal amide): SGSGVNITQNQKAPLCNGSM

IL-13 16 mer peptide 34 = target: T6, IL-13 16 mer peptide 34; experiment: 16 mer peptide ELISA; peptide 34
T6 sequence (peptide, N-terminal biotin; C-terminal amide): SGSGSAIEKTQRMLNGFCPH

IL-13 16 mer peptide 12 = target: T7, IL-13 16 mer peptide 12; experiment: 16 mer peptide ELISA; peptide 12
T7 sequence (peptide, N-terminal biotin; C-terminal amide): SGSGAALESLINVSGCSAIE

IL-13 16 mer peptide 4 = target: T8, IL-13 16 mer peptide 4; experiment: 16 mer peptide ELISA; peptide 4
T8 sequence (peptide, N-terminal biotin; C-terminal amide): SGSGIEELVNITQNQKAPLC

IL-13 16 mer peptide 36 = target: T9, IL-13 16 mer peptide 36; experiment: 16 mer peptide ELISA; peptide 36
T9 sequence (peptide, N-terminal biotin; C-terminal amide): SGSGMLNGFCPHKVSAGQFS

IL-13 16 mer peptide 38 = target: T10, IL-13 16 mer peptide 38; experiment: 16 mer peptide ELISA; peptide 38
T10 sequence (peptide, N-terminal biotin; C-terminal amide): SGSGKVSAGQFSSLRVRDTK

IL-13 16 mer peptide 11 = target: T11, IL-13 16 mer peptide 11; experiment: 16 mer peptide ELISA; peptide 11
T11 sequence (peptide, N-terminal biotin; C-terminal amide): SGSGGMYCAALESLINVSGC

IL-13 16 mer peptide 41 = target: T12, IL-13 16 mer peptide 41; experiment: 16 mer peptide ELISA; peptide 41
T12 sequence (peptide, by the resolver, N-terminal biotin on the SGSG spacer; C-terminal amide): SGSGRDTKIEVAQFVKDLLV

IL-13 16 mer peptide 33 = target: T13, IL-13 16 mer peptide 33; experiment: 16 mer peptide ELISA; peptide 33
T13 sequence (peptide, N-terminal biotin; C-terminal amide): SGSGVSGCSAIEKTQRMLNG

IL-13 16 mer peptide 22 = target: T14, IL-13 16 mer peptide 22; experiment: 16 mer peptide ELISA; peptide 22
T14 sequence (peptide, N-terminal biotin; C-terminal amide): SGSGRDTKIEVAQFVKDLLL

IL-13 16 mer peptide 14 = target: T15, IL-13 16 mer peptide 14; experiment: 16 mer peptide ELISA; peptide 14
T15 sequence (peptide, N-terminal biotin; C-terminal amide): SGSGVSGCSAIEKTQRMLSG

IL-13 16 mer peptide 8 = target: T16, IL-13 16 mer peptide 8; experiment: 16 mer peptide ELISA; peptide 8
T16 sequence (peptide, N-terminal biotin; C-terminal amide): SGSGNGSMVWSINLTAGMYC

IL-13 16 mer peptide 20 = target: T17, IL-13 16 mer peptide 20; experiment: 16 mer peptide ELISA; peptide 20
T17 sequence (peptide, N-terminal biotin; C-terminal amide): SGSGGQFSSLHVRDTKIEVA

IL-13 16 mer peptide 30 = target: T18, IL-13 16 mer peptide 30; experiment: 16 mer peptide ELISA; peptide 30
T18 sequence (peptide, N-terminal biotin; C-terminal amide): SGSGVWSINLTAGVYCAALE

IL-13 16 mer peptide 3 = target: T19, IL-13 16 mer peptide 3; experiment: 16 mer peptide ELISA; peptide 3
T19 sequence (peptide, N-terminal biotin; C-terminal amide): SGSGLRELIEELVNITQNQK

IL-13 16 mer peptide 35 = target: T20, IL-13 16 mer peptide 35; experiment: 16 mer peptide ELISA; peptide 35
T20 sequence (peptide, N-terminal biotin; C-terminal amide): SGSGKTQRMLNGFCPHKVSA

IL-13 16 mer peptide 28 = target: T21, IL-13 16 mer peptide 28; experiment: 16 mer peptide ELISA; peptide 28
T21 sequence (peptide, N-terminal biotin; C-terminal amide): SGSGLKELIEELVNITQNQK

IL-13 16 mer peptide 42 = target: T22, IL-13 16 mer peptide 42; experiment: 16 mer peptide ELISA; peptide 42
T22 sequence (peptide, N-terminal biotin; C-terminal amide): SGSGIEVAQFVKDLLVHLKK

IL-13 16 mer peptide 9 = target: T23, IL-13 16 mer peptide 9; experiment: 16 mer peptide ELISA; peptide 9
T23 sequence (peptide, N-terminal biotin; C-terminal amide): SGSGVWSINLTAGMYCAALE

IL-13 16 mer peptide 6 = target: T24, IL-13 16 mer peptide 6; experiment: 16 mer peptide ELISA; peptide 6
T24 sequence (peptide, N-terminal biotin; C-terminal amide): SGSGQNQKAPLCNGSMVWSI

IL-13 16 mer peptide 13 = target: T25, IL-13 16 mer peptide 13; experiment: 16 mer peptide ELISA; peptide 13
T25 sequence (peptide, N-terminal biotin; C-terminal amide): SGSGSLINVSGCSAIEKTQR

IL-13 16 mer peptide 21 = target: T26, IL-13 16 mer peptide 21; experiment: 16 mer peptide ELISA; peptide 21
T26 sequence (peptide, N-terminal biotin; C-terminal amide): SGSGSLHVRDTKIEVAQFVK

IL-13 16 mer peptide 19 = target: T27, IL-13 16 mer peptide 19; experiment: 16 mer peptide ELISA; peptide 19
T27 sequence (peptide, N-terminal biotin; C-terminal amide): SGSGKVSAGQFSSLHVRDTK

IL-13 16 mer peptide 23 = target: T28, IL-13 16 mer peptide 23; experiment: 16 mer peptide ELISA; peptide 23
T28 sequence (peptide, N-terminal biotin; C-terminal amide): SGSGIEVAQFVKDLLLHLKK

IL-13 16 mer peptide 15 = target: T29, IL-13 16 mer peptide 15; experiment: 16 mer peptide ELISA; peptide 15
T29 sequence (peptide, N-terminal biotin; C-terminal amide): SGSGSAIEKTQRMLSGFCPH

IL-13 16 mer peptide 18 = target: T30, IL-13 16 mer peptide 18; experiment: 16 mer peptide ELISA; peptide 18
T30 sequence (peptide, N-terminal biotin; C-terminal amide): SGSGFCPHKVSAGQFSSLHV

IL-13 16 mer peptide 7 = target: T31, IL-13 16 mer peptide 7; experiment: 16 mer peptide ELISA; peptide 7
T31 sequence (peptide, N-terminal biotin; C-terminal amide): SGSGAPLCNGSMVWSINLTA

IL-13 16 mer peptide 27 = target: T32, IL-13 16 mer peptide 27; experiment: 16 mer peptide ELISA; peptide 27
T32 sequence (peptide, N-terminal biotin; C-terminal amide): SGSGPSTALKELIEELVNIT

IL-13 16 mer peptide 37 = target: T33, IL-13 16 mer peptide 37; experiment: 16 mer peptide ELISA; peptide 37
T33 sequence (peptide, N-terminal biotin; C-terminal amide): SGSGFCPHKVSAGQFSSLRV

IL-13 16 mer peptide 10 = target: T34, IL-13 16 mer peptide 10; experiment: 16 mer peptide ELISA; peptide 10
T34 sequence (peptide, N-terminal biotin; C-terminal amide): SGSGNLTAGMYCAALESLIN

IL-13 16 mer peptide 40 = target: T35, IL-13 16 mer peptide 40; experiment: 16 mer peptide ELISA; peptide 40
T35 sequence (peptide, N-terminal biotin; C-terminal amide): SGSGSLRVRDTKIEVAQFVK

IL-13 16 mer peptide 17 = target: T36, IL-13 16 mer peptide 17; experiment: 16 mer peptide ELISA; peptide 17
T36 sequence (peptide, N-terminal biotin; C-terminal amide): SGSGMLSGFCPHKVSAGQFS

IL-13 16 mer peptide 29 = target: T37, IL-13 16 mer peptide 29; experiment: 16 mer peptide ELISA; peptide 29
T37 sequence (peptide, N-terminal biotin; C-terminal amide): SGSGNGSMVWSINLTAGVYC

IL-13 16 mer peptide 2 = target: T38, IL-13 16 mer peptide 2; experiment: 16 mer peptide ELISA; peptide 2
T38 sequence (peptide, N-terminal biotin; C-terminal amide): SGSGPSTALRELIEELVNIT

- absorbance at 490 nm (IL-13 16 mer peptide 39): 0.057 A490 and 0.055 A490
- absorbance at 490 nm (IL-13 16 mer peptide 16): 0.099 A490 and 0.141 A490
- absorbance at 490 nm (IL-13 16 mer peptide 31): 0.064 A490 and 0.056 A490
- absorbance at 490 nm (IL-13 16 mer peptide 32): 0.071 A490 and 0.057 A490
- absorbance at 490 nm (IL-13 16 mer peptide 5): 0.063 A490 and 0.065 A490
- absorbance at 490 nm (IL-13 16 mer peptide 34): 0.082 A490 and 0.067 A490
- absorbance at 490 nm (IL-13 16 mer peptide 12): 0.075 A490 and 0.062 A490
- absorbance at 490 nm (IL-13 16 mer peptide 4): 0.079 A490 and 0.105 A490
- absorbance at 490 nm (IL-13 16 mer peptide 36): 0.073 A490 and 0.074 A490
- absorbance at 490 nm (IL-13 16 mer peptide 38): 0.067 A490 and 0.056 A490
- absorbance at 490 nm (IL-13 16 mer peptide 11): 0.064 A490 and 0.061 A490
- absorbance at 490 nm (IL-13 16 mer peptide 41): 0.058 A490
- absorbance at 490 nm (IL-13 16 mer peptide 33): 0.088 A490 and 0.084 A490
- absorbance at 490 nm (IL-13 16 mer peptide 22): 0.09 A490 and 0.076 A490
- absorbance at 490 nm (IL-13 16 mer peptide 14): 0.119 A490 and 0.115 A490
- absorbance at 490 nm (IL-13 16 mer peptide 8): 0.084 A490 and 0.071 A490
- absorbance at 490 nm (IL-13 16 mer peptide 20): 0.06 A490 and 0.104 A490
- absorbance at 490 nm (IL-13 16 mer peptide 30): 0.062 A490
- absorbance at 490 nm (IL-13 16 mer peptide 3): 0.067 A490 and 0.07 A490
- absorbance at 490 nm (IL-13 16 mer peptide 35): 0.089 A490 and 0.09 A490
- absorbance at 490 nm (IL-13 16 mer peptide 28): 0.074 A490 and 0.078 A490
- absorbance at 490 nm (IL-13 16 mer peptide 42): 0.104 A490 and 0.108 A490
- absorbance at 490 nm (IL-13 16 mer peptide 9): 0.061 A490 and 0.07 A490
- absorbance at 490 nm (IL-13 16 mer peptide 6): 0.072 A490 and 0.075 A490
- absorbance at 490 nm (IL-13 16 mer peptide 13): 0.066 A490 and 0.063 A490
- absorbance at 490 nm (IL-13 16 mer peptide 21): 0.061 A490 and 0.078 A490
- absorbance at 490 nm (IL-13 16 mer peptide 19): 0.077 A490 and 0.063 A490
- absorbance at 490 nm (IL-13 16 mer peptide 23): 0.144 A490 and 0.135 A490
- absorbance at 490 nm (IL-13 16 mer peptide 15): 0.081 A490 and 0.129 A490
- absorbance at 490 nm (IL-13 16 mer peptide 18): 0.073 A490 and 0.09 A490
- absorbance at 490 nm (IL-13 16 mer peptide 7): 0.061 A490 and 0.072 A490
- absorbance at 490 nm (IL-13 16 mer peptide 27): 0.06 A490 and 0.082 A490
- absorbance at 490 nm (IL-13 16 mer peptide 37): 0.068 A490 and 0.063 A490
- absorbance at 490 nm (IL-13 16 mer peptide 10): 0.075 A490 and 0.064 A490
- absorbance at 490 nm (IL-13 16 mer peptide 40): 0.06 A490
- absorbance at 490 nm (IL-13 16 mer peptide 17): 0.064 A490 and 0.06 A490
- absorbance at 490 nm (IL-13 16 mer peptide 29): 0.098 A490 and 0.071 A490
- absorbance at 490 nm (IL-13 16 mer peptide 2): 0.057 A490 and 0.068 A490
B1: mouse monoclonal antibody 6A1 (antibody, mouse IgG1, V domains shown)
VH: EIQLQQSVAELVRPGASVRLSCTASGFYIKDTYMHWVIQRPEQGLEWIGTIDPANGNTKYVPKFQGKATITADTSSNTAYLRLSSLTSEDTAIYYCARSIYDDYHYDDYYAMDYWGQGTSVTVSS
VL: DVLMTQTPLSLPVSLGDQASISCRSSQNIVHINGNTYLEWYLQKPGQSPKLLIYKISDRFSGVPDRFSGSGSGTDFTLKISRVEAEDLGVYYCFQGSHVPWTFGGGTKLEIK

From patent publication US7807788
